Measured values: patent US20090305953A1
Several values for one entry are separate records, joined by “and”; a condition that tells them apart may be missing. Equal values may be shown once. One block for each substance: values may come before it.

How the values were obtained:
[1] = molecular target: human serum albumin (human) (UniProt P02768); assay: calculated from ITC Ka; 10 µM antibiotic, 6×10^-4 M human serum albumin assumed
[2] = molecular target: human α-glycoprotein (human) (UniProt P02763); assay: calculated from ITC Ka; 1 µM antibiotic, 1.5×10^-5 M α-glycoprotein assumed
[3] = molecular target: N,N′-diacetyl-Lys-D-Ala-D-Ala; assay: ITC, no HSA
[4] = molecular target: N,N′-diacetyl-Lys-D-Ala-D-Ala; assay: ITC, tri-peptide injected into dalbavancin, 25 °C, apparent value in the presence of 80.7 µM HSA
[5] = molecular target: human serum albumin (human) (UniProt P02768); assay: calculated from ITC Ka; 250 µM antibiotic, 6×10^-4 M human serum albumin assumed
[6] = molecular target: N,N′-diacetyl-Lys-D-Ala-D-Ala; assay: ITC, tri-peptide injected into dalbavancin, 25 °C, apparent value in the presence of 34.2 µM HSA
[7] = molecular target: human α-glycoprotein (human) (UniProt P02763); assay: ITC, single-site model
dog albumin (dog) = dog albumin (dog) (UniProt P49822); assay: ITC, single-site model
rat albumin (rat) = rat albumin (rat) (UniProt P02770); assay: ITC, single-site model
bovine albumin (bovine) = bovine albumin (bovine) (UniProt P02769); assay: ITC, single-site model
[8] = molecular target: human α-glycoprotein (human) (UniProt P02763); assay: calculated from ITC Ka; 10 µM antibiotic, 1.5×10^-5 M α-glycoprotein assumed
[9] = molecular target: human α-glycoprotein (human) (UniProt P02763); assay: calculated from ITC Ka; 165 µM antibiotic, 1.5×10^-5 M α-glycoprotein assumed
[10] = molecular target: human α-glycoprotein (human) (UniProt P02763); assay: calculated from ITC Ka; 500 µM antibiotic, 1.5×10^-5 M α-glycoprotein assumed
[11] = molecular target: human serum albumin (human) (UniProt P02768); assay: calculated from ITC Ka; 1 µM antibiotic, 6×10^-4 M human serum albumin assumed
[12] = molecular target: N,N′-diacetyl-Lys-D-Ala-D-Ala; assay: ITC, tri-peptide injected into dalbavancin, 10 °C, no HSA
[13] = molecular target: human serum albumin (human) (UniProt P02768); assay: calculated from ITC Ka; 165 µM antibiotic, 6×10^-4 M human serum albumin assumed
[14] = molecular target: human α-glycoprotein (human) (UniProt P02763); assay: calculated from ITC Ka; 250 µM antibiotic, 1.5×10^-5 M α-glycoprotein assumed
[15] = molecular target: N,N′-diacetyl-Lys-D-Ala-D-Ala; assay: ITC, tri-peptide injected into dalbavancin, 25 °C, apparent value in the presence of 13.6 µM HSA
[16] = molecular target: human α-glycoprotein (human) (UniProt P02763); assay: calculated from ITC Ka; 100 µM antibiotic, 1.5×10^-5 M α-glycoprotein assumed
[17] = molecular target: human serum albumin (human) (UniProt P02768); assay: calculated from ITC Ka; 100 µM antibiotic, 6×10^-4 M human serum albumin assumed
[18] = molecular target: human serum albumin (human) (UniProt P02768); assay: calculated from ITC Ka; 500 µM antibiotic, 6×10^-4 M human serum albumin assumed

Sequence of human α-glycoprotein (human) (P02763 19-201): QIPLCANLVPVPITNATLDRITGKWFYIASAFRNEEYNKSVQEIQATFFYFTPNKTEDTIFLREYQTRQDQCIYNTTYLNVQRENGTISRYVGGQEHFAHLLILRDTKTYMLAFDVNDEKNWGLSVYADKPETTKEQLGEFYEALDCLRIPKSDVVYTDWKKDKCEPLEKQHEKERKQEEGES
Sequence of bovine albumin (bovine) (P02769 25-607 limits assumed): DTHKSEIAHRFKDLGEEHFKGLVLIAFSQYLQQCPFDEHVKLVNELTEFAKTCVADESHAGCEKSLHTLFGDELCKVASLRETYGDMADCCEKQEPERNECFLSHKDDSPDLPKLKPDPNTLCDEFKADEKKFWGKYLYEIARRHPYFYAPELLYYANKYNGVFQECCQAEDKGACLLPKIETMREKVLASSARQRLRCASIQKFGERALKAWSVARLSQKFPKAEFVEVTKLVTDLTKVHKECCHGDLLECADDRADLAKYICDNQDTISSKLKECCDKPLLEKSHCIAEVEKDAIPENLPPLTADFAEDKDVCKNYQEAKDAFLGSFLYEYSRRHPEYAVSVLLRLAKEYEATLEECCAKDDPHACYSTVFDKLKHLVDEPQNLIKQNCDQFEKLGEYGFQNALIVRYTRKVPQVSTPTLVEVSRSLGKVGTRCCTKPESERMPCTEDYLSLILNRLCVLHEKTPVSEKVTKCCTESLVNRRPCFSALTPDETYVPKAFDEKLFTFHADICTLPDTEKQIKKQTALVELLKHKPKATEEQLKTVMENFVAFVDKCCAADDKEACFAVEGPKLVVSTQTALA
Sequence of rat albumin (rat) (P02770 25-608 limits assumed): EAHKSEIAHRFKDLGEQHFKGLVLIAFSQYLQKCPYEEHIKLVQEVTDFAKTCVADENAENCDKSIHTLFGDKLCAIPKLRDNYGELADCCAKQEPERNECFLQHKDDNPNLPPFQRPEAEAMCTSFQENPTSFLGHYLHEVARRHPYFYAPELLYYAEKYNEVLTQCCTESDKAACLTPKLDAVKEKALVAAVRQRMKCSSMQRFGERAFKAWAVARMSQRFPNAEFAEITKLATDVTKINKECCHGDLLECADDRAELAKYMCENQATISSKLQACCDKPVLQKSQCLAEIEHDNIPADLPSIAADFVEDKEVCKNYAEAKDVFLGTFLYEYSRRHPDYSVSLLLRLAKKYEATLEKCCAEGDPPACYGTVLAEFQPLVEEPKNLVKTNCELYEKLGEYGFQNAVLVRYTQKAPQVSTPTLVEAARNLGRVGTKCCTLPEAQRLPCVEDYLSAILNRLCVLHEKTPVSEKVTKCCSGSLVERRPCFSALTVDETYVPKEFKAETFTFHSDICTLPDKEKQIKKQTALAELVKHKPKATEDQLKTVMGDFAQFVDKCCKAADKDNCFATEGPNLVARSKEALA
Sequence of dog albumin (dog) (P49822 25-608 limits assumed): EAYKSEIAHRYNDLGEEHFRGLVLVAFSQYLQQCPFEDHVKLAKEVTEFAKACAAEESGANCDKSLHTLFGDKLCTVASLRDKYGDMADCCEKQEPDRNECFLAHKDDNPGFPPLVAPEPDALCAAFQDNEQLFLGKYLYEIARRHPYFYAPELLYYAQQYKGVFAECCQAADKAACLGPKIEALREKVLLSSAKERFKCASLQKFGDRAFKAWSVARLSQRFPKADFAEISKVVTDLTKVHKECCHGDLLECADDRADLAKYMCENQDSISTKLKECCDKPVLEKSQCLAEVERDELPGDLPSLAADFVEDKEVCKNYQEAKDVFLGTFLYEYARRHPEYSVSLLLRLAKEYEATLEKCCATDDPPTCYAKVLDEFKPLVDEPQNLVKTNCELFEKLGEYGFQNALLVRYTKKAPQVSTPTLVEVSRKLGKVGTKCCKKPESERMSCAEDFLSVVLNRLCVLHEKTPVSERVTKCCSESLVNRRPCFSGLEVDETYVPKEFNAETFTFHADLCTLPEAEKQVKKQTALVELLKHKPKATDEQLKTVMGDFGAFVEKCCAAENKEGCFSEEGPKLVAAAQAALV

- calculated percent binding [1]: 98.8%
- calculated percent binding [2]: 73%
- N [3]: 0.5
- N [4]: 0.83
- calculated percent binding [5]: 98.5%
- N [6]: 0.68
- N (binding stoichiometry, protein per dalbavancin) [7]: < 1
- N (binding stoichiometry, protein per dalbavancin) (dog albumin (dog)): < 1
- N (binding stoichiometry, protein per dalbavancin) (rat albumin (rat)): < 1
- N (binding stoichiometry, protein per dalbavancin) (bovine albumin (bovine)): < 1
- calculated percent binding [8]: 68.2%
- calculated percent binding [9]: 16.9%
- calculated percent binding [10]: 5.9%
- calculated percent binding [11]: 98.8%
- N [12]: 0.59 and 0.56
- calculated percent binding [13]: 98.6%
- calculated percent binding [14]: 11.4%
- N [15]: 0.35 and 0.37
- calculated percent binding [16]: 26.2%
- calculated percent binding [17]: 98.7%
- calculated percent binding [18]: 98%
Substance: dalbavancin (peptide)

- calculated percent binding [1]: 98.3%
- calculated percent binding [2]: 9.6%
- calculated percent binding [8]: 9.1%
- calculated percent binding [11]: 98.3%
- calculated percent binding [16]: 6%
- calculated percent binding [17]: 98%
Substance: teicoplanin (peptide)
